Experiments:
[1] = biological target: the molecule itself; assay: negative stain electron microscopy; A2M at 78 μg/ml on carbon-coated copper grids, 2% w/v uranyl formate; 2D classes and 3D refinement with D2 symmetry imposed, 24 Å map
[2] = biological target: the molecule itself; assay: nonreducing SDS-PAGE; nonreducing SDS-PAGE on 5 to 15% gradient gels; shows disulfide-linked oligomers; DSSO-cross-linked A2M-MA defines the dimer and tetramer bands
[3] = biological target: the molecule itself; assay: SEC; Sephacryl S-300 HR column in HBS, samples after DSSO cross-linking

Protein | stoichiometry N [1] | stoichiometry N [2] | stoichiometry N [3]
Human α2-macroglobulin (A2M), native conformation, plasma-purified (natural protein, UniProt P01023 24-1474, looked up, intact thiol ester between the cysteine and glutamine of the CGEQ motif; N-glycans; intersubunit Cys278/Cys431 disulfides in each disulfide-bridged dimer, α2-macroglobulin, human, from plasma; original N-terminus at position 24; Homotetramer of 720 kDa, a dimer of disulfide-bridged dimers; In the cross-linking, SEC and native PAGE rows the protein carried DSSO cross-links; SAXS was also measured on deglycosylated A2M; also called native A2M; plasma A2M; source: purified from plasma from a healthy volunteer, never frozen) SVSGKPQYMVLVPSLLHTETTEKGCVLLSYLNETVTVSASLESVRGNRSLFTDLEAENDVLHCVAFAVPKSSSNEEVMFLTVQVKGPTQEFKKRTTVMVKNEDSLVFVQTDKSIYKPGQTVKFRVVSMDENFHPLNELIPLVYIQDPKGNRIAQWQSFQLEGGLKQFSFPLSSEPFQGSYKVVVQKKSGGRTEHPFTVEEFVLPKFEVQVTVPKIITILEEEMNVSVCGLYTYGKPVPGHVTVSICRKYSDASDCHGEDSQAFCEKFSGQLNSHGCFYQQVKTKVFQLKRKEYEMKLHTEAQIQEEGTVVELTGRQSSEITRTITKLSFVKVDSHFRQGIPFFGQVRLVDGKGVPIPNKVIFIRGNEANYYSNATTDEHGLVQFSINTTNVMGTSLTVRVNYKDRSPCYGYQWVSEEHEEAHHTAYLVFSPSKSFVHLEPMSHELPCGHTQTVQAHYILNGGTLLGLKKLSFYYLIMAKGGIVRTGTHGLLVKQEDMKGHFSISIPVKSDIAPVARLLIYAVLPTGDVIGDSAKYDVENCLANKVDLSFSPSQSLPASHAHLRVTAAPQSVCALRAVDQSVLLMKPDAELSASSVYNLLPEKDLTGFPGPLNDQDNEDCINRHNVYINGITYTPVSSTNEKDMYSFLEDMGLKAFTNSKIRKPKMCPQLQQYEMHGPEGLRVGFYESDVMGRGHARLVHVEEPHTETVRKYFPETWIWDLVVVNSAGVAEVGVTVPDTITEWKAGAFCLSEDAGLGISSTASLRAFQPFFVELTMPYSVIRGEAFTLKATVLNYLPKCIRVSVQLEASPAFLAVPVEKEQAPHCICANGRQTVSWAVTPKSLGNVNFTVSAEALESQELCGTEVPSVPEHGRKDTVIKPLLVEPEGLEKETTFNSLLCPSGGEVSEELSLKLPPNVVEESARASVSVLGDILGSAMQNTQNLLQMPYGCGEQNMVLFAPNIYVLDYLNETQQLTPEIKSKAIGYLNTGYQRQLNYKHYDGSYSTFGERYGRNQGNTWLTAFVLKTFAQARAYIFIDEAHITQALIWLSQRQKDNGCFRSSGSLLNNAIKGGVEDEVTLSAYITIALLEIPLTVTHPVVRNALFCLESAWKTAQEGDHGSHVYTKALLAYAFALAGNQDKRKEVLKSLNEEAVKKDNSVHWERPQKPKAPVGHFYEPQAPSAEVEMTSYVLLAYLTAQPAPTSEDLTSATNIVKWITKQQNAQGGFSSTQDTVVALHALSKYGAATFTRTGKAAQVTIQSSGTFSSKFQVDNNNRLLLQQVSLPELPGEYSMKVTGEGCVYLQTSLKYNILPEKEEFPFALGVQTLPQTCDEPKAHTSFQISLSVSYTGSRSASNMAIVDVKMVSGFIPLKPTVKMLERSNHVSRTEVSSNHVLIYLDKVSNQTLSLFFTVLQDVPVRDLKPAIVKVYDYYETDEFAIAEYNAPCSKDLGNA | 4 | 2 | 
Recombinant wild-type A2M (natural protein, human, UniProt P01023 24-1474, looked up, α2-macroglobulin, human, recombinant wild type; source: HEK293 Freestyle cells, transiently transfected, purified from the supernatant by the protocol used for plasma A2M) SVSGKPQYMVLVPSLLHTETTEKGCVLLSYLNETVTVSASLESVRGNRSLFTDLEAENDVLHCVAFAVPKSSSNEEVMFLTVQVKGPTQEFKKRTTVMVKNEDSLVFVQTDKSIYKPGQTVKFRVVSMDENFHPLNELIPLVYIQDPKGNRIAQWQSFQLEGGLKQFSFPLSSEPFQGSYKVVVQKKSGGRTEHPFTVEEFVLPKFEVQVTVPKIITILEEEMNVSVCGLYTYGKPVPGHVTVSICRKYSDASDCHGEDSQAFCEKFSGQLNSHGCFYQQVKTKVFQLKRKEYEMKLHTEAQIQEEGTVVELTGRQSSEITRTITKLSFVKVDSHFRQGIPFFGQVRLVDGKGVPIPNKVIFIRGNEANYYSNATTDEHGLVQFSINTTNVMGTSLTVRVNYKDRSPCYGYQWVSEEHEEAHHTAYLVFSPSKSFVHLEPMSHELPCGHTQTVQAHYILNGGTLLGLKKLSFYYLIMAKGGIVRTGTHGLLVKQEDMKGHFSISIPVKSDIAPVARLLIYAVLPTGDVIGDSAKYDVENCLANKVDLSFSPSQSLPASHAHLRVTAAPQSVCALRAVDQSVLLMKPDAELSASSVYNLLPEKDLTGFPGPLNDQDNEDCINRHNVYINGITYTPVSSTNEKDMYSFLEDMGLKAFTNSKIRKPKMCPQLQQYEMHGPEGLRVGFYESDVMGRGHARLVHVEEPHTETVRKYFPETWIWDLVVVNSAGVAEVGVTVPDTITEWKAGAFCLSEDAGLGISSTASLRAFQPFFVELTMPYSVIRGEAFTLKATVLNYLPKCIRVSVQLEASPAFLAVPVEKEQAPHCICANGRQTVSWAVTPKSLGNVNFTVSAEALESQELCGTEVPSVPEHGRKDTVIKPLLVEPEGLEKETTFNSLLCPSGGEVSEELSLKLPPNVVEESARASVSVLGDILGSAMQNTQNLLQMPYGCGEQNMVLFAPNIYVLDYLNETQQLTPEIKSKAIGYLNTGYQRQLNYKHYDGSYSTFGERYGRNQGNTWLTAFVLKTFAQARAYIFIDEAHITQALIWLSQRQKDNGCFRSSGSLLNNAIKGGVEDEVTLSAYITIALLEIPLTVTHPVVRNALFCLESAWKTAQEGDHGSHVYTKALLAYAFALAGNQDKRKEVLKSLNEEAVKKDNSVHWERPQKPKAPVGHFYEPQAPSAEVEMTSYVLLAYLTAQPAPTSEDLTSATNIVKWITKQQNAQGGFSSTQDTVVALHALSKYGAATFTRTGKAAQVTIQSSGTFSSKFQVDNNNRLLLQQVSLPELPGEYSMKVTGEGCVYLQTSLKYNILPEKEEFPFALGVQTLPQTCDEPKAHTSFQISLSVSYTGSRSASNMAIVDVKMVSGFIPLKPTVKMLERSNHVSRTEVSSNHVLIYLDKVSNQTLSLFFTVLQDVPVRDLKPAIVKVYDYYETDEFAIAEYNAPCSKDLGNA |  | 2 | 
A2M^LNK/LNK, recombinant A2M with the Thr654Cys and Thr661Cys mutations (natural protein, human, UniProt P01023 24-1474, looked up, intersubunit disulfide between Cys654 and Cys661 of opposite subunits, α2-macroglobulin, human, recombinant; two cysteines introduced in the LNK region; The protein is secreted into the culture supernatant; also called A2M^LNK/LNK (T654C T661C); source: HEK293 Freestyle cells, transiently transfected, purified from the supernatant by the protocol used for plasma A2M) SVSGKPQYMVLVPSLLHTETTEKGCVLLSYLNETVTVSASLESVRGNRSLFTDLEAENDVLHCVAFAVPKSSSNEEVMFLTVQVKGPTQEFKKRTTVMVKNEDSLVFVQTDKSIYKPGQTVKFRVVSMDENFHPLNELIPLVYIQDPKGNRIAQWQSFQLEGGLKQFSFPLSSEPFQGSYKVVVQKKSGGRTEHPFTVEEFVLPKFEVQVTVPKIITILEEEMNVSVCGLYTYGKPVPGHVTVSICRKYSDASDCHGEDSQAFCEKFSGQLNSHGCFYQQVKTKVFQLKRKEYEMKLHTEAQIQEEGTVVELTGRQSSEITRTITKLSFVKVDSHFRQGIPFFGQVRLVDGKGVPIPNKVIFIRGNEANYYSNATTDEHGLVQFSINTTNVMGTSLTVRVNYKDRSPCYGYQWVSEEHEEAHHTAYLVFSPSKSFVHLEPMSHELPCGHTQTVQAHYILNGGTLLGLKKLSFYYLIMAKGGIVRTGTHGLLVKQEDMKGHFSISIPVKSDIAPVARLLIYAVLPTGDVIGDSAKYDVENCLANKVDLSFSPSQSLPASHAHLRVTAAPQSVCALRAVDQSVLLMKPDAELSASSVYNLLPEKDLTGFPGPLNDQDNEDCINRHNVYINGICYTPVSSCNEKDMYSFLEDMGLKAFTNSKIRKPKMCPQLQQYEMHGPEGLRVGFYESDVMGRGHARLVHVEEPHTETVRKYFPETWIWDLVVVNSAGVAEVGVTVPDTITEWKAGAFCLSEDAGLGISSTASLRAFQPFFVELTMPYSVIRGEAFTLKATVLNYLPKCIRVSVQLEASPAFLAVPVEKEQAPHCICANGRQTVSWAVTPKSLGNVNFTVSAEALESQELCGTEVPSVPEHGRKDTVIKPLLVEPEGLEKETTFNSLLCPSGGEVSEELSLKLPPNVVEESARASVSVLGDILGSAMQNTQNLLQMPYGCGEQNMVLFAPNIYVLDYLNETQQLTPEIKSKAIGYLNTGYQRQLNYKHYDGSYSTFGERYGRNQGNTWLTAFVLKTFAQARAYIFIDEAHITQALIWLSQRQKDNGCFRSSGSLLNNAIKGGVEDEVTLSAYITIALLEIPLTVTHPVVRNALFCLESAWKTAQEGDHGSHVYTKALLAYAFALAGNQDKRKEVLKSLNEEAVKKDNSVHWERPQKPKAPVGHFYEPQAPSAEVEMTSYVLLAYLTAQPAPTSEDLTSATNIVKWITKQQNAQGGFSSTQDTVVALHALSKYGAATFTRTGKAAQVTIQSSGTFSSKFQVDNNNRLLLQQVSLPELPGEYSMKVTGEGCVYLQTSLKYNILPEKEEFPFALGVQTLPQTCDEPKAHTSFQISLSVSYTGSRSASNMAIVDVKMVSGFIPLKPTVKMLERSNHVSRTEVSSNHVLIYLDKVSNQTLSLFFTVLQDVPVRDLKPAIVKVYDYYETDEFAIAEYNAPCSKDLGNA |  | 4 | 
A2M^3K, recombinant A2M with the Arg704Lys, Arg715Lys and Arg719Lys mutations (natural protein, human, UniProt P01023 24-1474, looked up, α2-macroglobulin, human, recombinant; the three bait region arginines replaced with lysines; The protein is secreted into the culture supernatant; also called A2M^3K (R704K R715K R719K); source: HEK293 Freestyle cells, transiently transfected, purified from the supernatant by the protocol used for plasma A2M) SVSGKPQYMVLVPSLLHTETTEKGCVLLSYLNETVTVSASLESVRGNRSLFTDLEAENDVLHCVAFAVPKSSSNEEVMFLTVQVKGPTQEFKKRTTVMVKNEDSLVFVQTDKSIYKPGQTVKFRVVSMDENFHPLNELIPLVYIQDPKGNRIAQWQSFQLEGGLKQFSFPLSSEPFQGSYKVVVQKKSGGRTEHPFTVEEFVLPKFEVQVTVPKIITILEEEMNVSVCGLYTYGKPVPGHVTVSICRKYSDASDCHGEDSQAFCEKFSGQLNSHGCFYQQVKTKVFQLKRKEYEMKLHTEAQIQEEGTVVELTGRQSSEITRTITKLSFVKVDSHFRQGIPFFGQVRLVDGKGVPIPNKVIFIRGNEANYYSNATTDEHGLVQFSINTTNVMGTSLTVRVNYKDRSPCYGYQWVSEEHEEAHHTAYLVFSPSKSFVHLEPMSHELPCGHTQTVQAHYILNGGTLLGLKKLSFYYLIMAKGGIVRTGTHGLLVKQEDMKGHFSISIPVKSDIAPVARLLIYAVLPTGDVIGDSAKYDVENCLANKVDLSFSPSQSLPASHAHLRVTAAPQSVCALRAVDQSVLLMKPDAELSASSVYNLLPEKDLTGFPGPLNDQDNEDCINRHNVYINGITYTPVSSTNEKDMYSFLEDMGLKAFTNSKIRKPKMCPQLQQYEMHGPEGLKVGFYESDVMGKGHAKLVHVEEPHTETVRKYFPETWIWDLVVVNSAGVAEVGVTVPDTITEWKAGAFCLSEDAGLGISSTASLRAFQPFFVELTMPYSVIRGEAFTLKATVLNYLPKCIRVSVQLEASPAFLAVPVEKEQAPHCICANGRQTVSWAVTPKSLGNVNFTVSAEALESQELCGTEVPSVPEHGRKDTVIKPLLVEPEGLEKETTFNSLLCPSGGEVSEELSLKLPPNVVEESARASVSVLGDILGSAMQNTQNLLQMPYGCGEQNMVLFAPNIYVLDYLNETQQLTPEIKSKAIGYLNTGYQRQLNYKHYDGSYSTFGERYGRNQGNTWLTAFVLKTFAQARAYIFIDEAHITQALIWLSQRQKDNGCFRSSGSLLNNAIKGGVEDEVTLSAYITIALLEIPLTVTHPVVRNALFCLESAWKTAQEGDHGSHVYTKALLAYAFALAGNQDKRKEVLKSLNEEAVKKDNSVHWERPQKPKAPVGHFYEPQAPSAEVEMTSYVLLAYLTAQPAPTSEDLTSATNIVKWITKQQNAQGGFSSTQDTVVALHALSKYGAATFTRTGKAAQVTIQSSGTFSSKFQVDNNNRLLLQQVSLPELPGEYSMKVTGEGCVYLQTSLKYNILPEKEEFPFALGVQTLPQTCDEPKAHTSFQISLSVSYTGSRSASNMAIVDVKMVSGFIPLKPTVKMLERSNHVSRTEVSSNHVLIYLDKVSNQTLSLFFTVLQDVPVRDLKPAIVKVYDYYETDEFAIAEYNAPCSKDLGNA |  |  | 4

Reference: PMC8167298, “Structural Investigations of Human A2M Identify a Hollow Native Conformation That Underlies Its Distinctive Protease-Trapping Mechanism” (Molecular & Cellular Proteomics : MCP, 2021)
